The labels stand for the following.
B1: T8: nanobody, SEQ ID NO:7, binds epitope 2 including F508, stabilizes WT CFTR but not F508del (protein)
VHH: QVQLQESGGGLVQPGGSLRLSCAASGSTSSINAMGWYRQAPGKQREPVAISSSGGDTRYAEPVKGRFTISRDNAQNKVYLQMNSLKPEDTAVYYCWLNWGRTSVNSWGQGTQVTVSS
modifications: T8 Nanobody amino acid sequence
B2: T27: NBD1-specific CFTR-stabilizing nanobody, SEQ ID NO:4, binds epitope 1 (protein)
VHH: QVQLQESGGGLEQPGGSLRLSCATSGVIFGINAMGWYRQAPGKQRELVATFTSGGSTNYADFVEGRFTISRDNAKNTVYLQMNGLRPEDTAVYYCHATVVVSRYGLTYDYWGQGTQVTVSS
modifications: T27 Nanobody amino acid sequence
B3: T2a: NBD1-specific CFTR-stabilizing nanobody, SEQ ID NO:3, binds epitope 1 (protein)
VHH: QVQLQESGGGLVQAGGSLRLSCAASGSIFRIDAMGWYRQAPGKQRELVAHSTSGGSTDYADSVKGRFTISRDNAKNTVYLQMNSLKPEDTAVYYCNADVRTRWYASNNYWGQGTQVTVSS
modifications: T2a Nanobody amino acid sequence
B4: D12: NBD1-specific CFTR-stabilizing nanobody, SEQ ID NO:2, binds epitope 1 (protein)
VHH: QVQLQESGGGLVQAGSSLRLACAATGSIRSINNMGWYRQAPGKQRGMVAIITRVGNTDYADSVKGRFTISRDNAKNTVYLQMNSLKPEDTATYYCHAEITEQSRPFYLTDDYWGQGTQVTVSS
modifications: D12 Nanobody amino acid sequence
B5: G3a: non-stabilizing nanobody, SEQ ID NO:50, recognizes the structurally diverse region of NBD1 (protein)
VHH: QVQLQESGGGLVQAGGSLRLSCTASGRAFSWYVMGWFRQAPGKEREFVATVSGNGSRRDYADSVKGRFTISRDNAKNTVYLQMNSLKPEDTAVYYCAASSTYYYTDPEKYDYWGQGTQVTVSS
modifications: G3a Nanobody

T3 sequence (P13569 with tags, fused parts or gaps DEL508-508): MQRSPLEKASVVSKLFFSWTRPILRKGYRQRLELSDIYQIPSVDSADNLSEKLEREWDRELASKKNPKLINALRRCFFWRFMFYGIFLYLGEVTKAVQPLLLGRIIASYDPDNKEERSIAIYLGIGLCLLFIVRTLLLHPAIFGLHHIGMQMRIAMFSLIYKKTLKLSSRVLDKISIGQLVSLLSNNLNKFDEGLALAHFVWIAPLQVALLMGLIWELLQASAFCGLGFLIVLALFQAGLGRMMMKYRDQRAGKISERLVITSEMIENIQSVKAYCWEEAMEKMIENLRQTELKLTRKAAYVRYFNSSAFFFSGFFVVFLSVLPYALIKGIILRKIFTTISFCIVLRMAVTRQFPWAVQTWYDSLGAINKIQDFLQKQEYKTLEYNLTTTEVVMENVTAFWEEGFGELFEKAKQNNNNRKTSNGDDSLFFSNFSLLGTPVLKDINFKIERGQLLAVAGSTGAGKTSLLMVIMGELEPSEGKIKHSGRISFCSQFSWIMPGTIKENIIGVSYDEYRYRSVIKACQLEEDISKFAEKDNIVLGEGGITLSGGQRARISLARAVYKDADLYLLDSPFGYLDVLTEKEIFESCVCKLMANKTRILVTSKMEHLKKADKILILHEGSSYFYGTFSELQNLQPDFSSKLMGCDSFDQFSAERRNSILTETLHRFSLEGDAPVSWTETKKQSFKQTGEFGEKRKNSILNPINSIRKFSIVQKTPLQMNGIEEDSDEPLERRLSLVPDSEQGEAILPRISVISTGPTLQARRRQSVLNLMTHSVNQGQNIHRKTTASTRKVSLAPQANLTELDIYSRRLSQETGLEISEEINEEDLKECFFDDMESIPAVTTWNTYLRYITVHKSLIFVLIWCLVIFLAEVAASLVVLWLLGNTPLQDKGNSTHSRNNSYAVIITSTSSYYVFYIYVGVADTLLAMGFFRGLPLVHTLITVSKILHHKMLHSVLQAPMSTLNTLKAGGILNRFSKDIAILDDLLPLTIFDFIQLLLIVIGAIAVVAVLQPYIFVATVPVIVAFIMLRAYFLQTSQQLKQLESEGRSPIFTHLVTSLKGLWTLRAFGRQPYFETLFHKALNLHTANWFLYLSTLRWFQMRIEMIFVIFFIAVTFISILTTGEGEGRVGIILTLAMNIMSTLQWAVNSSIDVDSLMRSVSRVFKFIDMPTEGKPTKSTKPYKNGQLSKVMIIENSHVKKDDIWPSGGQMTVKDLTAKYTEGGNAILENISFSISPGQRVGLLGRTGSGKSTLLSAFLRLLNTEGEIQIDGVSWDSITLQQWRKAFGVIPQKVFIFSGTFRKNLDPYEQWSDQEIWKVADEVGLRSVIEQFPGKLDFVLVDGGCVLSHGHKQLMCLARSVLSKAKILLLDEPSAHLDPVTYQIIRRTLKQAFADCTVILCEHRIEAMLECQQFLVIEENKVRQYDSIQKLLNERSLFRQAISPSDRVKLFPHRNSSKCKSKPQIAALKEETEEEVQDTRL

One assay deals with T1, F508del-2PT-NBD1 (Homo sapiens, UniProt P13569, A534P/DEL508-508/I539T/S492P/V470M).
T1 construct: His6-SUMO (N, cleaved yes); made in house; host or cells: Escherichia coli BL21(DE3) pLysS
T1 sequence (P13569 with tags, fused parts or gaps V470M/S492P/DEL508-508/A534P/I539T limits assumed): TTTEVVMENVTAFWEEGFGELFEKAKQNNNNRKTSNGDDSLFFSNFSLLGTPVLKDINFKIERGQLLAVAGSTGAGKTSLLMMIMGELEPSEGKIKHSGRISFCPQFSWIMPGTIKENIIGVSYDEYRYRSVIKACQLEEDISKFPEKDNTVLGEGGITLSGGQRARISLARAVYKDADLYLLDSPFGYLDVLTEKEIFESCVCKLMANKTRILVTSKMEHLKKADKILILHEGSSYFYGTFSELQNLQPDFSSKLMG
The experiment in a line: Thermal shift assay (DSF) of F508del-2PT-NBD1. The class given is binding.
Settings: not given
Here is the method:
Solutions of either 2PT-NBD1 or F508del-2PT-NBD1 (10 μM final concentration), nanobodies (30 μM final concentration) and 2.5× or 5× concentrated SYPRO Orange Protein Stain (Molecular Probes) diluted in 20 mM HEPES pH 7.5, 150 mM NaCl, 3 mM MgCl2, 2 mM ATP and 10% (w/v) glycerol, 10% (w/v) ethylene glycol, were added to the wells of a 96-well PCR plates type BR white (VWR) in a final volume of 25 μl. Plates were sealed with EasySeal sheets (Molecular dimensions) and spun 2 min at 900× g. SYPRO orange fluorescence was monitored in CFX96 Touch Real-Time PCR Detection System (Bio-Rad) using FRET scan mode from 10 to 80° C. in increments of either 1° C. or 0.2° C.
As for B1, the “stabilization of F508del-2PT-NBD1” value is recorded as “did not stabilize”.

As for B2, the “stabilization of F508del-2PT-NBD1” value is given as “to the same extent as 2PT-NBD1”.

Consider B3, for which the “stabilization of F508del-2PT-NBD1” value is on record as “to the same extent as 2PT-NBD1”.

In the case of B4, the “stabilization of F508del-2PT-NBD1” value is given as “to the same extent as 2PT-NBD1”.

In a further assay the target is T2, purified human CFTR (wt-CFTR) (Homo sapiens, UniProt P13569).
T2 construct: His10-SUMO* (N); FLAG; EGFP (C); made in house; host or cells: HEK 293 cell line D165
T2 sequence (P13569 whole entry): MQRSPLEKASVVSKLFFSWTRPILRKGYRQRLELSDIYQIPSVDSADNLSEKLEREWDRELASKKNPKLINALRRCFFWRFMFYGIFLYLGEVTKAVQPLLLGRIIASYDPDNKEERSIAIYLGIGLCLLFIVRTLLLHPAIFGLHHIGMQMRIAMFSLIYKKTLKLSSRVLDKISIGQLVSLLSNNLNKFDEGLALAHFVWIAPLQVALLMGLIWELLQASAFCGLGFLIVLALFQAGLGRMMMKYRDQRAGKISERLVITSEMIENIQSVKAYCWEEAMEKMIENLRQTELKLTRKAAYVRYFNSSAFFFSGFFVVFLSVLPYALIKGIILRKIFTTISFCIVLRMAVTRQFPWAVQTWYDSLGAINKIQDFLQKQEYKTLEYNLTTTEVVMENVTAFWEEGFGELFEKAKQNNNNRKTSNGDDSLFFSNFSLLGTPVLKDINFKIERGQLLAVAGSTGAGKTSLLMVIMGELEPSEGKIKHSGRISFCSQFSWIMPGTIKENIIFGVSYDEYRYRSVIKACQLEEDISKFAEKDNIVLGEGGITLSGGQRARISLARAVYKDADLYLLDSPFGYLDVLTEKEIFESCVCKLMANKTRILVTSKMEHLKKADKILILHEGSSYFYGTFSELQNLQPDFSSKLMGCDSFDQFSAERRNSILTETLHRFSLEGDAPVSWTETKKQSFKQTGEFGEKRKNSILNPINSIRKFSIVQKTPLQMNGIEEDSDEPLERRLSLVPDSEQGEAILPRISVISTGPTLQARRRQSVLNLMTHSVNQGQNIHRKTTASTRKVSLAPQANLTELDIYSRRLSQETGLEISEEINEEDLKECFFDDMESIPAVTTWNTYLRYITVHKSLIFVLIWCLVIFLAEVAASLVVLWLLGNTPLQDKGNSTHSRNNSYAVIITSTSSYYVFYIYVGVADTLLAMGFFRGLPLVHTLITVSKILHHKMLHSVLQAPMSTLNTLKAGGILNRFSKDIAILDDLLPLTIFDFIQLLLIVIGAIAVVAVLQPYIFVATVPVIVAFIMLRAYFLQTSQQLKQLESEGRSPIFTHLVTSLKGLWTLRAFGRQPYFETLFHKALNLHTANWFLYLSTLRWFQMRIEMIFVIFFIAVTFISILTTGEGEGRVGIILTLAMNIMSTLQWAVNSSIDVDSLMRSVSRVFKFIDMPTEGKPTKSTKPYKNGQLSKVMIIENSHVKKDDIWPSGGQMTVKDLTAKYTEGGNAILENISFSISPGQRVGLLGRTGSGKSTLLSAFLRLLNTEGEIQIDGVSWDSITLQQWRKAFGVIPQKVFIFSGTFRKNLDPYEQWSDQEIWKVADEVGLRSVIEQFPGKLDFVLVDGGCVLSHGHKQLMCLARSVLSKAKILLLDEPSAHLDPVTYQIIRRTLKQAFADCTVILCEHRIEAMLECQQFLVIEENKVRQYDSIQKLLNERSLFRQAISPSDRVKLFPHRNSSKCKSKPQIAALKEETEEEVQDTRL
The experiment in a line: Full-length CFTR ELISA. The class given is binding. As to conditions: immobilized CFTR, nanobodies titrated. The procedure:
Strep-Tactin XT coated microplate (iba Life Science) was coated overnight at 4° C. with Twin-Strep-tagged nanobodies (5 μg/ml). Plate was blocked with 4% milk for 2 h at RT. Then different concentrations of CFTR (10^−10 to 10^−8 M) were incubated for 2 h at 4° C. CFTR binding was detected with monoclonal antibodies L12B4, MM13, 154, 660, 570, 596 specific to CFTR obtained from the CFTR Antibody Distribution Program (http://cftrantibodies.web.unc.edu/available-antibodies)46 and then anti-mouse-HRP antibody (Millipore, catalogue number: AP308P, 0.5 μg/ml) for 1 h 30 min at 4° C. For Bmax determination Pierce Nickel Coated Plate (ThermoScientific) was coated 1 h at 4° C. with CFTR (8 μg/ml). Plate was blocked with 4% milk for 2 h at 4° C. Then different concentrations of nanobodies (10^−9 to 10^−6 M) were incubated for 2 h at 4° C. Nanobody binding was detected with Myc-tag specific antibody (Sigma, catalogue number: C3956, 0.5 μg/ml) and then anti-rabbit-HRP antibody (Cell Signaling, catalogue number: 7074S, 1:1000 dilution) for 1 h 30 min at 4° C. Between each step wells were washed 3 times by aspiration with 50 mM HEPES pH 7.5, 150 mM NaCl, 10% glycerol, 2 mM ATP, 2.5 mM MgCl2, 0.01% DMNG (Anatrace). Incubations were performed in the same buffer with 0.4% milk. Reaction was visualized by using 1-Step Ultra TMB-ELISA (ThermoScientific) and stopped with H2SO4 (500 mM final). Absorbance was measured at 450 nm using SynergyMx (BioTek).
Affinity constants (KD) and thermodynamic parameters from ITC experiments were determined using one-site binding model with MicroCal Origin 7.0 software (Origin Lab Corp.). Dose response ELISA curves of each Nb binding to either isolated NBD1 or purified FL-CFTR were fitted using the sigmoidal dose-response equation from GraphPad Prism 3. DSC data were analyzed with the MicroCal Origin 7.0 software (Origin Lab Corp.), from which the unfolding temperature (Tm) was obtained.
In general terms: An ELISA detects its analyte on a solid surface through an enzyme-linked reagent.
For the molecule B5, the Bmax entry is on record as “about 50 % of T2a maximum signal”.

With B1, the Bmax is ~30 % of T2a maximum signal.

Staying with this assay, now noted: nanobodies immobilized, purified FL-CFTR titrated.
For the molecule B5, the “binding of purified FL-CFTR” value was “bind with high affinity”.

In the case of B1, the “binding of purified FL-CFTR” value was “bind with high affinity”.

B3: the “binding of purified FL-CFTR” value is on record as “bind with high affinity”.

The next assay has as its target T3, F508del-CFTR (Homo sapiens, UniProt P13569, DEL508-508).
T3 construct: expressed in transfected cells
The experiment in a line: HS-YFP quenching assay. Type of assay: cell-based. As to conditions: HEK293T F508del-CFTR + HS-YFP, 10 μM forskolin and 3 μM VX770, 3 μM VX809 or DMSO 24 h. Here is the method: To study CFTR function in cells, we used a HS-YFP quenching assay where changes in fluorescence of halide sensitive YFP (HS-YFP) reflect halide entrance through CFTR. HEK293T cells stably expressing F508del-CFTR (or WT CFTR as a control) and a modified YFP were transiently transfected with pcDNA3-based plasmid coding either for a stabilizing nanobody (T2a, D12 or T27) or a control nanobody (not binding F508del-CFTR) and incubated with 3 μM VX809 corrector or 0.06% DMSO for 24 h. Before addition of iodide, cells are stimulated by 10 μM forskolin and 3 μM VX770 potentiator for 20 mins and YFP fluorescence signal is measured (excitation 485, emission 535 nm) over a period of 4 seconds.
The assay was performed as described previously in (Ensinck, et al. 2020) with minor modifications. Briefly, cells stably expressing wt- or F508del-CFTR and a halide sensitive yellow fluorescent protein (HS-YFP) (Galietta, et al. 2001) were transfected with plasmids encoding the nanobodies using PEI and immediately plated into black, clear-bottomed 96-well plates coated with Poly-D-Lysine. After overnight incubation VX-809 (3 μM) or DMSO was added for 24 h. Next, the cells were washed with DPBS and potentiator VX-770 (3 μM) and/or CFTR activator forskolin (#F3917, Sigma-Aldrich, 10 μM) was added for 20 min. Fluorescence was measured after which a I^− buffer (137 mM Nal, 2.7 mM KI, 1.7 mM KH2PO4, 10.1 mM Na2HPO4, 5 mM D-glucose) was injected into the well and fluorescence monitored for another 4 s. YFP quenching was determined at the end of the interval as F/F0, and CFTR function as 1-(F/F0).
Turning to B2, the “quenching of YFP (CFTR function)” value was “quenching of YFP”.

Turning to B3, the “quenching of YFP (CFTR function)” value is reported as “quenching of YFP”.

Take B4: the “quenching of YFP (CFTR function)” value is recorded as “quenching of YFP”.

The values are drawn from patent US20220289837A1, “Cystic Fibrosis Transmembrane Conductance Regulator Stabilizing Agents” (VIB VZW, priority 2019, published 2022).
